In publication PMC3482499:

Target: T1, Cra (Escherichia coli O157:H7 (EHEC) 86-24) (UniProt P0ACP3)
T1 sequence: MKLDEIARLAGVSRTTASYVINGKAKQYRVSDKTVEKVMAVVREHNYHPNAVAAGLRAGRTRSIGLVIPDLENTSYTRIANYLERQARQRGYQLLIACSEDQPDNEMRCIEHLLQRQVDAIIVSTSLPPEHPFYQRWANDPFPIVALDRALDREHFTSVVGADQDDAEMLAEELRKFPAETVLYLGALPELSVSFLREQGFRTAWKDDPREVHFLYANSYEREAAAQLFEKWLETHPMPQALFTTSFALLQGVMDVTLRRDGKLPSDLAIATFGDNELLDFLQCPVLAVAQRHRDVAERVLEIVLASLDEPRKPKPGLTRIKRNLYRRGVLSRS
Assay: competition

With “TCGGATCCCATGTGCTGCGACTGCGTTCGCTTACCCCAATCACTTACTTATGTAAGCTCCTGGGGATTCACTCGCTTGCCGCCTTCCTGTAACTCGAATTAAGTAGAGTATAGTGAAACGGTTCAGCTTGGTTTTTATTCTGTTTTATTTGTTTATGCAATGAGATCTATCTTATAAAGAGAAACGCTTAACTAAATGGAAATGCGAATTCGA (double strand) [ler probe aa (-450 to -255)]” the binding was “binds”.
